According to patent US20230374149A1 (SHANGHAI HANSOH BIOMEDICAL, published 2023):

Biological target: T1, His-tagged human TROP-2 (TROP-2-His), SinoBiologics 10428-H08H (human, UniProt P09758 27-274)
T1 construct: Bought protein; also called TROP-2 His protein; human TROP-2 His antigen; not shown: His tag
T1 sequence: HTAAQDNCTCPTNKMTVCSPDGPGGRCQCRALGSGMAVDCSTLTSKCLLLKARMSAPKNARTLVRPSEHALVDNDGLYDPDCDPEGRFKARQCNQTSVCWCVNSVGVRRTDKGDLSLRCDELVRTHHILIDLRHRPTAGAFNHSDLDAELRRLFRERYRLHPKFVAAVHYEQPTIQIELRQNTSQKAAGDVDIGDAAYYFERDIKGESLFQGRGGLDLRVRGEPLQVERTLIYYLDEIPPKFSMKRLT
Assay: indirect ELISA, coated TROP-2 His

EC50: 0.56 nM
B1: murine monoclonal antibody M1 (antibody, V domains shown)
VH: QVQLQQPGAELVRPGASVKLSCRASGYTFTNYWMNWVKQRPEQGLEWIGRIDPNDSETHYNQKFKDRAILTVDKASNTAYMQLSGLTSEDSAVHYCARSGFGSTYWFFDVWGAGTTVTVSS
VL: DIVMTQSHKFMSTSVGDRVSITCKASQDVSTAVAWYQQKPGQSPKLLIYSASYRYTGVPDRFAGSGYGTDFTFTISSVQTEDLTVYHCQQHYSTPLTFGPGTRLELK
notes: It is called a murine antibody, but the ELISA used a goat-anti-human secondary antibody
